Source: patent US20240209100A1 (DIAGONAL THERAPEUTICS, published 2024)

T1: IL-18 receptor (IL-18Rα/IL-18Rβ) overexpressed on HEK-Blue IL-18 cells (Homo sapiens (Human), UniProt Q13478 19-541; O95256 20-599)
T1 sequence 1: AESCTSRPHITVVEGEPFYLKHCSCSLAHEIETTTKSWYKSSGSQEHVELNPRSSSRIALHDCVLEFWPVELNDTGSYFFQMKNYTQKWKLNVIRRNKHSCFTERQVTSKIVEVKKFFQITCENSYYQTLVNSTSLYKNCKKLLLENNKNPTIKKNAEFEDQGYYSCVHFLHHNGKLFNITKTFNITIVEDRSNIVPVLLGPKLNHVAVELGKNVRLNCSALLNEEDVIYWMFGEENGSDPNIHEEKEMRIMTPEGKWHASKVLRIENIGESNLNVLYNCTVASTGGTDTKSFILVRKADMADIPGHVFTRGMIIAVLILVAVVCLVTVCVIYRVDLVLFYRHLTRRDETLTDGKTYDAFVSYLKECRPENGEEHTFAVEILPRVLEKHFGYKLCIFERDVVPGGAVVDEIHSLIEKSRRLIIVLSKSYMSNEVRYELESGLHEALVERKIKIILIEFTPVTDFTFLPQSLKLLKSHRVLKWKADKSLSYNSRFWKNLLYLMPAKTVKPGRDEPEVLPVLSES
T1 sequence 2: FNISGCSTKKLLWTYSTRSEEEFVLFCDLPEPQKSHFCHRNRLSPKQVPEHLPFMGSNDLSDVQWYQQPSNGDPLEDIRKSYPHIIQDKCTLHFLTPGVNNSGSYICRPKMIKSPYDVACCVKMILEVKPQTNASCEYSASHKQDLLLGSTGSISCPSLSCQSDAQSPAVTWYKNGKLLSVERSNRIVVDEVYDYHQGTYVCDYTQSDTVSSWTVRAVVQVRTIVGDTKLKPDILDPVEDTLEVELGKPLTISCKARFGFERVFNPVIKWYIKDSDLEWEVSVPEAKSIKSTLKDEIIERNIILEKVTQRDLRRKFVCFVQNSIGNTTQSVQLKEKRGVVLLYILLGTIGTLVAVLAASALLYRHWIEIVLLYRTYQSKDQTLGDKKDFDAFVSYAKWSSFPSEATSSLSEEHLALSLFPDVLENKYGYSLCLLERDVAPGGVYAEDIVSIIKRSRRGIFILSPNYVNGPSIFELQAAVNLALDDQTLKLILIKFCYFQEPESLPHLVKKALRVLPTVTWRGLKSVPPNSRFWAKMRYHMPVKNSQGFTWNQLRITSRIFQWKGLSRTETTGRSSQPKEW


Biological target: T1, IL-18 receptor (IL-18Rα/IL-18Rβ) …
Test: cell-based or functional assay

Row | Binder | HEK-Blue IL-18: Abs405 (Emax) | HEK-Blue IL-18: EC50
1 | DGL076 (bispecific antibody, V domains shown) V domain 1: QVQLQESGGGLVQPGGSLRLSCAASGNIFRATGMGWYRQAPGKWRELVARISSTGSPNYVDFVKGRFTISRDNAKNTLYLQMNSLKPDDTAVYYCNTVGTTLFAWGQGTQVTVSS V domain 2: EVQLVESGGGVAQAGGSLRLSCAASITSFSLNTMGYYRQLPGKQRELVAVESSSGITNYADSVKGRFTISRDGAKNTVFLQMNSLTPEDTAVYYCGGKLFGRDFWGQGTQVTVSS | 0.49 Abs | 0.0066 nM
2 | DGL078 (bispecific antibody, V domains shown) V domain 1: QVQLQESGGGLVQAGGSLRLSCIVSGSIVRIDFMGWYRQAPGKKRDMVATITTGGSTNYADSVKDRFTISRDNAKNTLSLQVNDLKPEDTAVYYCNSVVHTTSRPPVLYWGQGTQVTVSS V domain 2: EVQLVESGGGVAQAGGSLRLSCAASITSFSLNTMGYYRQLPGKQRELVAVESSSGITNYADSVKGRFTISRDGAKNTVFLQMNSLTPEDTAVYYCGGKLFGRDFWGQGTQVTVSS | 0.65 Abs | 0.024 nM
3 | DGL052 (bispecific antibody, V domains shown) V domain 1: QVQLQESGGGLVQPGGSLRLSCAASGFIFSNWYMRWVRQAPGEGLEWVSSINSGGDDTDYADSVKGRFTISRDNAKGTLYLQMHSLKPEDTALYYCERGADRVRGQGTQVTVSS V domain 2: QVQLVESGGDLVLPGGSLKLSCEASGSISSRNSMAWYRRAPGKQRELVAAISSISSGGRTDYADFVKGRFTIFRDTAKNMVYLQMNNLKPEDTAVYDCDDPIRVASLAYDDWGQGTQVTVSS | 1.03 Abs | 0.0041 nM
4 | DGL060 (bispecific antibody, V domains shown) V domain 1: EVQLVESGGGLVQPGGSLRLSCAASGSIFSINAMGWYRQAPGKQREVVATSTGGGMTNYADSVKGRFTISRDNAKNTVYLQMNSLKPEDTAVYYCNADKDPFFPGDYWGQGTQVTVSS V domain 2: QVQLQESGGGLVQPGGSLGLSCAASGIKISVNSMAWYRQAPGERREMVAVISSGGSAVYADSVKGRFTISRDNAKNMVYLQMNSLKPEDTAVYYCHPGSAAYRDYWGQGTQVTVSS | 0.6 Abs | 0.028 nM
5 | DGL062 (bispecific antibody, V domains shown) V domain 1: QVQLQESGGGLVQPGGSLRLSCAASGSIFSTKGLGWYRQAPGEQRELVAGISSAGWIFYTQSVKGRFTMSRDNAKNTVYLQMNSLKPEDTAVYYCNSAQSGVPLRSWGQGTQVTVAS V domain 2: QVQLQESGGGLVQPGGSLGLSCAASGIKISVNSMAWYRQAPGERREMVAVISSGGSAVYADSVKGRFTISRDNAKNMVYLQMNSLKPEDTAVYYCHPGSAAYRDYWGQGTQVTVSS | 0.88 Abs | 0.0034 nM
6 | DGL061 (bispecific antibody, V domains shown) V domain 1: QVQLQESGGGLVQPGGSLRLSCAASGNIFRATGMGWYRQAPGKWRELVARISSTGSPNYVDFVKGRFTISRDNAKNTLYLQMNSLKPDDTAVYYCNTVGTTLFAWGQGTQVTVSS V domain 2: QVQLQESGGGLVQPGGSLGLSCAASGIKISVNSMAWYRQAPGERREMVAVISSGGSAVYADSVKGRFTISRDNAKNMVYLQMNSLKPEDTAVYYCHPGSAAYRDYWGQGTQVTVSS | 0.47 Abs | 0.0063 nM

Next, values leading:

Row | HEK-Blue IL-18: Abs405 (Emax) | HEK-Blue IL-18: EC50 | Binder
7 | 0.6 Abs | 0.0054 nM | DGL077 (bispecific antibody, V domains shown) V domain 1: QVQLQESGGGLVQPGGSLRLSCAASGSIFSTKGLGWYRQAPGEQRELVAGISSAGWIFYTQSVKGRFTMSRDNAKNTVYLQMNSLKPEDTAVYYCNSAQSGVPLRSWGQGTQVTVAS V domain 2: EVQLVESGGGVAQAGGSLRLSCAASITSFSLNTMGYYRQLPGKQRELVAVESSSGITNYADSVKGRFTISRDGAKNTVFLQMNSLTPEDTAVYYCGGKLFGRDFWGQGTQVTVSS
8 | 0.6 Abs | 0.014 nM | DGL063 (bispecific antibody, V domains shown) V domain 1: QLQLVESGGGLVQPGGSLRLSCAASGKIFSINIMDWYRQAPGKERELVARISPGDIITYANDVKGRFTISRNNAKNTVYLQMNSLKPEDTAVYYCRWRQGAGDYWGRGTQVTVSS V domain 2: QVQLQESGGGLVQPGGSLGLSCAASGIKISVNSMAWYRQAPGERREMVAVISSGGSAVYADSVKGRFTISRDNAKNMVYLQMNSLKPEDTAVYYCHPGSAAYRDYWGQGTQVTVSS
9 | 0.81 Abs | 0.028 nM | DGL075 (bispecific antibody, V domains shown) V domain 1: EVQLVESGGGLVQPGGSLRLSCAASGSIFSINAMGWYRQAPGKQREVVATSTGGGMTNYADSVKGRFTISRDNAKNTVYLQMNSLKPEDTAVYYCNADKDPFFPGDYWGQGTQVTVSS V domain 2: EVQLVESGGGVAQAGGSLRLSCAASITSFSLNTMGYYRQLPGKQRELVAVESSSGITNYADSVKGRFTISRDGAKNTVFLQMNSLTPEDTAVYYCGGKLFGRDFWGQGTQVTVSS
10 | 0.36 Abs | 0.018 nM | DGL068 (bispecific antibody, V domains shown) V domain 1: EVQLVESGGGLVQPGGSLRLSCAASGSIFSINAMGWYRQAPGKQREVVATSTGGGMTNYADSVKGRFTISRDNAKNTVYLQMNSLKPEDTAVYYCNADKDPFFPGDYWGQGTQVTVSS V domain 2: QVQLVESGGGLVQAGGSLRLSCVASGTFFQIHVMGWYRQAPGKQRELVAFIINNGGTRYADSVKGRFTISRDYAKNTVYLQMNSLKPEDTAVYYCNTEGTYRGRYSTDNWGQGTQVTVSS

Biological target: T1, IL-18 receptor (IL-18Rα/IL-18Rβ) …
Test: cell-based or functional assay
Remark: another data set of the same source

Row | Binder | HEK-Blue IL-18: Abs 405 | HEK-Blue IL-18: Fold over Background
11 | DGL318 (bispecific antibody, V domains shown) V domain 1: QVQLVESGGGLVQAGGSLRLSCAASGRTFSSYDMGWFRQAPGKEREFVAALRWSGGSTSYADSVKGRFTISRDNAKNTVYLHMNSLKPEDTAVYYCAATLETDSGTYWADYWGQGTQVTVSS V domain 2: QLQLVESGGGLVQAGGSLRLSCAASRSITFSHNVMGWYRQAPGKQRELVASIGSGGSTNYVDSVKGRATISRDNAKKTVYLQMNSLKPEDTAVYYCGVVVGVYRGSLGQGTQVTVSS | 2.23 Abs | 9.7 fold
12 | DGL322 (bispecific antibody, V domains shown) V domain 1: QVQLVESGGGLVQAGGSLRLSCAASGRTFSSYTMGWFRQAPGKEREFVAAISWSAGRTYYADSVKGRFTISRDNAKNTVYLQMNSLKPEDTAVYFCAAEEAPDWAPIDCSGYGCLSLYDYWGQGTQVTVSS V domain 2: QLQLVESGGGLVQAGGSLRLSCAASRSITFSHNVMGWYRQAPGKQRELVASIGSGGSTNYVDSVKGRATISRDNAKKTVYLQMNSLKPEDTAVYYCGVVVGVYRGSLGQGTQVTVSS | 0.74 Abs | 3.2 fold
13 | DGL323 (bispecific antibody, V domains shown) V domain 1: QVQLQESGGGLVQPGGSLRLSCAASGFIFSNWYMRWVRQAPGEGLEWVSSINSGGDDTDYADSVKGRFTISRDNAKGTLYLQMHSLKPEDTALYYCERGADRVRGQGTQVTVSS V domain 2: QLQLVESGGGLVQAGGSLRLSCAASRSITFSHNVMGWYRQAPGKQRELVASIGSGGSTNYVDSVKGRATISRDNAKKTVYLQMNSLKPEDTAVYYCGVVVGVYRGSLGQGTQVTVSS | 0.42 Abs | 1.8 fold
14 | DGL319 (bispecific antibody, V domains shown) V domain 1: EVQLVESGGGLVQPGGSLRLSCAASGSIFSINAMGWYRQAPGKQREVVATSTGGGMTNYADSVKGRFTISRDNAKNTVYLQMNSLKPEDTAVYYCNADKDPFFPGDYWGQGTQVTVSS V domain 2: QLQLVESGGGLVQAGGSLRLSCAASRSITFSHNVMGWYRQAPGKQRELVASIGSGGSTNYVDSVKGRATISRDNAKKTVYLQMNSLKPEDTAVYYCGVVVGVYRGSLGQGTQVTVSS | 2.88 Abs | 12.5 fold

More lines, now with the values ahead:

Row | HEK-Blue IL-18: Abs 405 | HEK-Blue IL-18: Fold over Background | Binder
15 | 0.38 Abs | 1.7 fold | DGL321 (bispecific antibody, V domains shown) V domain 1: QVQLQESGGGLVQPGGSARLSCVASGIIFNDYHMGWYRQAPGKQRDLVAGITAGGSTTYADSVKGRFTISRDNAKHTVYLQMNNLSPEDTAVYYCNTFYNAILDWGKGTLVTVSS V domain 2: QLQLVESGGGLVQAGGSLRLSCAASRSITFSHNVMGWYRQAPGKQRELVASIGSGGSTNYVDSVKGRATISRDNAKKTVYLQMNSLKPEDTAVYYCGVVVGVYRGSLGQGTQVTVSS
16 | 2.36 Abs | 10.3 fold | DGL320 (bispecific antibody, V domains shown) V domain 1: QVQLQESGGGLVQPGGSLRLSCAASGSIFSTKGLGWYRQAPGEQRELVAGISSAGWIFYTQSVKGRFTMSRDNAKNTVYLQMNSLKPEDTAVYYCNSAQSGVPLRSWGQGTQVTVAS V domain 2: QLQLVESGGGLVQAGGSLRLSCAASRSITFSHNVMGWYRQAPGKQRELVASIGSGGSTNYVDSVKGRATISRDNAKKTVYLQMNSLKPEDTAVYYCGVVVGVYRGSLGQGTQVTVSS
